Laboratory results reported in patent US20240058465A1 (SUTRO BIOPHARMA, published 2024).

How the values were obtained:
[1] = target: T1, human ROR1 (hROR1) expressed on cells (human, UniProt Q01973 30-937); test: flow cytometry, HCT116-hROR1 cells
T1 construct: Mino cells are the target positive cells of the killing assay; also called receptor tyrosine kinase like orphan receptor 1; HCT 116-hROR1

human ROR1-ECD = target: T2, human ROR1-ECD (human, UniProt Q01973 30-406); test: SPR (Biacore), antibody captured by anti-Fc, human ROR1-ECD analyte
T2 construct: Bought protein; also called hROR1; ROR1-extracellular domain
Procedure: Anti-Fc polyclonal antibodies were immobilized onto a CMS chip (GE Life Sciences) using amine coupling chemistry (from Amine Coupling Kit, GE Life Sciences). The immobilization steps were carried out at a flow rate of 25 μL/min in 1×HBS-EP+buffer (GE Life Sciences; 10× Stock diluted before use). The sensor surfaces were activated for 7 min with a mixture of NHS (0.05 M) and EDC (0.2 M). The Anti-Fc antibodies were injected over all 4 flow cells at a concentration of 25 ug/ml in 10 mM sodium acetate, pH 4.5, for 7 min. Ethanolamine (1 M, pH 8.5) was injected for 7 min to block any remaining activated groups.
Off-rate and kinetic binding experiments were performed at 25° C. using 1×HBS-EP+buffer. Test and control antibodies were injected over the anti-Fc surface at concentrations of 5-10 μg/mL for 12 seconds at a flow rate of 10 μL/min on flow cells 2, 3 and 4, followed by a buffer wash for 30 seconds at the same flow rate. […] After capturing ligand (antibody) on the anti-Fc surface, the analyte (hROR1, Fz or Kr domains, Acro Biosystems, Delaware) was bound for 180 seconds, followed by a 600 second dissociation phase at a flow rate of 50 μL/min. Between each ligand capture and analyte binding cycle, regeneration was carried out using 2 injections of 10 mM Glycine pH 2.0 for 30 seconds at 30 μL/min, followed by a 30 second buffer wash step.

[2] = target: T1, human ROR1 (hROR1) expressed on cells; test: cell-based or functional assay

Binder	Bmax (MFI) [1]	Kd [1]	Kd (human ROR1-ECD)	koff (human ROR1-ECD)	kon (human ROR1-ECD)	Mino Nb-PBD, drug-conjugated 2° antibody Cell Killing IC50 [2]	Mino Nb-PBD, drug-conjugated 2° antibody Cell Killing Span [2]
SRP2188-B05 (antibody, IgG1, V domains shown, IgG1 with trastuzumab LC; HIS- and FLAG-tagged; cell-free expressed) VH: EVQLVESGGGLVQPGGSLRLSCAASGFNIPDYDIHWVRQAPGKGLEWVGVIDPDDGWTHYADSVKGRFTISADTSKNTAYLQMNSLRAEDTAVYYCARDYGVFDYWGQGTLVTVSS VL: not shown	8510 MFI	0.03 nM	0.757 nM	0.000671 s⁻¹	887000 M⁻¹ s⁻¹	0.0011 nM	70%
SRP2188-B07 (antibody, IgG1, V domains shown, IgG1 with trastuzumab LC; HIS- and FLAG-tagged; cell-free expressed) VH: EVQLVESGGGLVQPGGSLRLSCAASGFNIHSHDIHWVRQAPGKGLEWVGWINPDDGDTYYADSVKGRFAISADTSKNTAYLQMNSLRAEDTAVYYCARDYGVFDYWGRGTLVTVSS VL: not shown	8760 MFI	0.07 nM	0.221 nM	0.000194 s⁻¹	880000 M⁻¹ s⁻¹	0.0014 nM	72%
SRP2188-E01 (antibody, IgG1, V domains shown, IgG1 with trastuzumab LC; HIS- and FLAG-tagged; cell-free expressed) VH: EVQLVESGGGLVQPGGSLRLSCAASGFNIGDYDIHWVRQAPGKGLEWVVGIDPQDGATDYADSVKGRFTISADTSKNTAYLQMNSLRAEDTAVYYCARDYGVFDYWGQGTLVTVSS VL: not shown	9370 MFI	0.06 nM	0.827 nM	0.000387 s⁻¹	468000 M⁻¹ s⁻¹	0.0015 nM	69%
SRP2188-A09 (antibody, IgG1, V domains shown, IgG1 with trastuzumab LC; HIS- and FLAG-tagged; cell-free expressed) VH: EVQLVESGGGLVQPGGSLRLSCAASGFNIINYDIHWVRQAPGKGLEWVGWINPDDGDTYYADSVKGRFTISADTSKNTAYLQMNSLRAEDTAVYYCARDYGVFDYWGQGTLVTVSS VL: not shown	9380 MFI	0.03 nM	0.424 nM	0.000401 s⁻¹	944000 M⁻¹ s⁻¹	0.00088 nM	71%
SRP2188-C07 (antibody, IgG1, V domains shown, IgG1 with trastuzumab LC; HIS- and FLAG-tagged; cell-free expressed) VH: EVQLVESGGGLVQPGGSLRLSCAASGFNIVRYDIHWVRQAPGKGLEWVGWINPDDGDTYYADSVKGRFTISADTSKNTAYLQMNSLRAEDTAVYYCARDYGVFDYWGQGTLVTVSS VL: not shown	9160 MFI	0.04 nM	–	–	–	0.00085 nM	71%
SRP2188-E03 (antibody, IgG1, V domains shown, IgG1 with trastuzumab LC; HIS- and FLAG-tagged; cell-free expressed) VH: EVQLVESGGGLVQPGGSLRLSCAASGFNIRDYDIHWVRQAPGKGLEWVAGIDPDDGSTDYADSVKGRFTISADTSKNTAYLQMNSLRAEDTAVYYCARDYGVYDYWGQGTLVTVSS VL: not shown	10300 MFI	0.02 nM	0.464 nM	0.000333 s⁻¹	718000 M⁻¹ s⁻¹	0.0013 nM	65%
SRP2188-A03 (antibody, IgG1, V domains shown, IgG1 with trastuzumab LC; HIS- and FLAG-tagged; cell-free expressed) VH: EVQLVESGGGLVQPGGSLRLSCAASGFNIRDYDIHWVRQAPGKGLEWVGWINPDDGDTYYADSVKGRFTISADTSKNTAYLQMNSLRAEDTAVYYCARDYGVFDYWGQGTLVTVSS VL: not shown	9700 MFI	0.03 nM	0.508 nM	0.000389 s⁻¹	766000 M⁻¹ s⁻¹	0.001 nM	71%
SRP2188-D09 (antibody, IgG1, V domains shown, IgG1 with trastuzumab LC; HIS- and FLAG-tagged; cell-free expressed) VH: EVQLVESGGGLVQPGGSLRLSCAASGFNIRDYDIHWVRQAPGKGLEWVVGIDPGDGSTDYADSVKGRFTISADTSKNTAYLQMNSLRAEDTAVYYCARDFGVFDYWGQGTLVTVSS VL: not shown	8970 MFI	0.06 nM	0.366 nM	0.00028 s⁻¹	766000 M⁻¹ s⁻¹	0.0013 nM	70%
SRP2188-D03 (antibody, IgG1, V domains shown, IgG1 with trastuzumab LC; HIS- and FLAG-tagged; cell-free expressed) VH: EVQLVESGGGLVQPGGSLRLSCAASGFNISDYDIHWVRQAPGKGLEWVGGIDPHDGSTDYADSVKGRFTISADTSKNTAYLQMNSLRAEDTAVYYCARDYGVYDYWGQGTLVTVSS VL: not shown	9110 MFI	0.04 nM	0.838 nM	0.00055 s⁻¹	656000 M⁻¹ s⁻¹	0.00089 nM	72%
SRP2188-A05 (antibody, IgG1, V domains shown, IgG1 with trastuzumab LC; HIS- and FLAG-tagged; cell-free expressed) VH: EVQLVESGGGLVQPGGSLRLSCAASGFNIKRYDIHWVRQAPGKGLEWVGWINPDDGDTYYADSVKGRFTISADTSKNTAYLQMNSLRAEDTAVYYCARDYGVFDYWGQGTLVTVSS VL: not shown	9030 MFI	0.04 nM	0.227 nM	0.000243 s⁻¹	1.07e+06 M⁻¹ s⁻¹	0.001 nM	71%
